Changes are numbered by the printed parent chain. Names and notes keep the numbering of the source. Values belong to the binder of their own block, whether it stands above or below them.
Target: T1, integrin αvβ3 on β3-CHO cells (recombinant hamster αv/human β3 hybrid), P05106
T1 chain: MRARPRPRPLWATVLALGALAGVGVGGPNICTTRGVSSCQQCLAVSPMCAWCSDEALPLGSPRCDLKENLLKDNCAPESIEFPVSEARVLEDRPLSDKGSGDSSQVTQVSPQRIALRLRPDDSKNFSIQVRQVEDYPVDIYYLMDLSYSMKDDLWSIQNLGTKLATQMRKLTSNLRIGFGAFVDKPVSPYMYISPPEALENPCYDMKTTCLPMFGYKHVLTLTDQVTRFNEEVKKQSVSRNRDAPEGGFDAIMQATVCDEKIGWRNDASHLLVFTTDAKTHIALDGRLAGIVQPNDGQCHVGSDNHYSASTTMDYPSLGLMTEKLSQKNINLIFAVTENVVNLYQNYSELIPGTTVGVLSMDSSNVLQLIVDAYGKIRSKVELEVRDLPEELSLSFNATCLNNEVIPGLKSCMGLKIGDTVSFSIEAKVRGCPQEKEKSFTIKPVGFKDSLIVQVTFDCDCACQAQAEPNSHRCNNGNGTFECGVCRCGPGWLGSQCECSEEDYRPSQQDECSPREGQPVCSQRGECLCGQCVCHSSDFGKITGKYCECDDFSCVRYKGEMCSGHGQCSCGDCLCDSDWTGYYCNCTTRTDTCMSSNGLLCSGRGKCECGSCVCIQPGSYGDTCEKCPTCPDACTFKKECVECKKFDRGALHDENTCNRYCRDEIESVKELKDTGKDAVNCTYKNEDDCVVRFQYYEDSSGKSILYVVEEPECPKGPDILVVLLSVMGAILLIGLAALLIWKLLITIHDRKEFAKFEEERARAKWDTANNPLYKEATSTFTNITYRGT
Experiment: cell adhesion assay (β3-CHO cells on coated IGF2)
Details: chain shown with the change, Tyrode-HEPES buffer, 1 mM Mg2+, read off a plot

[1] = IGF2 coating 5 µg/ml, parent: est. 30
[2] = IGF2 coating 10 µg/ml, parent: est. 43
[3] = IGF2 coating 20 µg/ml, parent: est. 56

B1: WT IGF2 (insulin-like growth factor-2) R24E; R34E; R37E; R38E (protein)
chain: AYRPSETLCGGELVDTLQFVCGDEGFYFSRPASEVSEESRGIVEECCFRSCDLALLETYCATPAKSE
- response (10 µg/ml IGF2, parent: est. 43): 15 % Adhesion

B3: WT IGF2 (insulin-like growth factor-2) R24E; R37E; R38E (protein)
chain: B1 chain with E34R
- response (10 µg/ml IGF2, parent: est. 43): 16 % Adhesion
- response [1]: 9.5 % Adhesion
- response [2]: 16 % Adhesion
- response [3]: 17 % Adhesion

The next lines start with the values.

- response (10 µg/ml IGF2, parent: est. 43): 25 % Adhesion
- response [1]: 20 % Adhesion
- response [2]: 25 % Adhesion
- response [3]: 36 % Adhesion
B2: WT IGF2 (insulin-like growth factor-2) R30E; R37E; R38E (protein)
chain: B1 chain with E24R, R30E, E34R

- response (10 µg/ml IGF2, parent: est. 43): 15 % Adhesion
- response [1]: 6.5 % Adhesion
- response [2]: 16 % Adhesion
- response [3]: 15 % Adhesion
B4: WT IGF2 (insulin-like growth factor-2) R34E; R37E; R38E (protein)
chain: B1 chain with E24R
